21 sequences from the DeepSol protein solubility set can be followed below.

This series can be described thus: soluble on expression in E. coli; label from the status in PepcDB or PDB records.
In the case of “MGSDKIHHHHHHMKCFFESEEFEKAVEKIDRLYEKVDSIEEAEIAFLREKKPFQGVAVVKEETYTIYKTGEKLVELEDPEKAASIAYILAGEKLLSGGWVRRMVSGLLQAMIVLMEIEDENGWSHSQRVARLAERVGKKLGLSEEKLSLLREYAMLHDVGKIGIEQLMLYTPTRIRIFEQYPQDHTIMGSVFLASLEVLWDVVPIVRHHHENWDGTGYPDGLKGEEIPLEARIISVCDYYDVLTNFVSSEWEGRTKTHEEALEIIKKEAGKKFDPKVVEAFLEIFSDEAVE”, the “soluble on expression in E. coli” value is “not soluble”.

With “MKKDLISVVMSAYNSEKFISDSISSILDQTYENWELIIINDASSDNTLKIVNQFSEKDPRIKVIDNENNLGLTISLNIGINNSKGEFIARLDSDDFAEPSRLEKELDHLHAYPEAGLVGSGAHLINSSGNKIGSMNVMSQPYFVNRFLINLNPFIHSSIMVRKKALDNVGSYREKFRYSQDYDLILRLSDKYKLSNIALPLIRWRVSDSSVTMQHHTLQRIYADIAREFAIERRNSGHDSYESTEFDTLIHEMRIRNQGRYLCDHGVYDLLFNKKYKEGCSELIKGISKGGFPYNSFYRGITQVISKVNIQLEHHHHHH”, the “soluble on expression in E. coli” value is “not soluble”.

Regarding “MGSDKIHHHHHHMKVTFGQQTTKVKQLADLLSQEISMGKYKSDCTLPSINKLSREYQVSRDTVFKAFIDLKDRGIIDSTPGKGYYVTNKLTNILLLLDEYSPFKYSLYNSFIKKLSINYKVDLLFHQYNERLFNTILRESIGRYNKYIVMNFDNEKLSPHLYKIDSSKLLLLDFGKFDKKDYSYVCQDFDDSFYHALAALKEHLRKYQRLVLLFPEDIKHPRSSCQYFNCFCQDYHIDSAIVENTDRIQVRKGEVYIAIRQIEVVNIIKQSRTTGLKCGEDFGLIAYNDTPAYEVIDQGITVLSINWEELGRKAAEFVLTGQEIRTYLPTEVHLRNSI”, the “soluble on expression in E. coli” value is “not soluble”.

Take “MAPCLENVACVNLSAMPPAPPSPQPVSHKQAATLCRQGRTCALKSGSNESGGSVTSTYTSYRLISQDIGKSLERVSKQPDVARETEYYREKIGSVKSIDDFMADTRLYNYALKAHGLEDMAYAKAFIRKVLTEGASDKNAFANKLSDNRYAELAKSLDFAGLGAAATATEAAKSGVIGNYARQTLEQEAGDDNNGVRLALYFERKAPTIKSGLDFLADDALAQVFRTTFNLPDAFAAADVDKQAALIEKSINIKDLQDPEKVGKLLERFTIMWEMQNPSTTYDPLAVFGSSSGYGISPDLLISINSLKLGGKAAALEHHHHHH”: the “soluble on expression in E. coli” value is on record as “soluble”.

For the sequence “MSLATICSLCNKKISIFKMRLKFKDGVVGQSCLSELNLCNFWAFEPGAKEYAESHTIADLKELQTSGKDFTNIQDQYIDDETKKELQKKQEKKQERQEKIEVLKEFKDDGATKFSSYYFDLKKNQILSSGSLTTSWRVIDFSEVLSYQVNRNGHLEQKHHGIARAVTGGIMAGGVGAIVGTTTGENTDYIDHLGLVINLSDGTNFEVKFLKTKTKTNSFTVKTAEGELRSLISIVQSGMNKAQEKAEQEQTKANTIKIESNADPAEEIRKFKKMADEGIISNEEFEAKKKQLLNLQEGHHHHHH”, the “soluble on expression in E. coli” value was “not soluble”.

Turning to “MNTTDRQITFSALSCLLSYPDEEWRAELPDWKALIQEIGNRQIREKLLHFFETSASYSPEALIEHYVYTFDFGKKTNMYVTYFNSGEQRERGIELLHLKNTYEQSGFLPTEKELPDYLPLMLEFAAAAEIEAARSVFEKYLSNVRELASRLEKNDSIYAELLHVLLAALENIGVRESVEGAVQALEHHHHHH”, the “soluble on expression in E. coli” value is recorded as “not soluble”.

Take “GMAPDQQVPATALGKSSRISLDGRRSERSVILADGSMHSLTLLHPGVYTLSSEVAETIRVLSGMAYYHAEGANDVQELHAGDSMVIPANQSYRLEVMEPLDYLLSS”: the “soluble on expression in E. coli” value is listed as “soluble”.

For the sequence “MTDVEQPVSVEDQQAQAQSYYDQVLGNAYVQTAINAYTKTKEFHPLLNSTLNSAEEKVSTVGNYAAQKAYDGYNSYYVKPKNTAYEAVSYGTERAKTAVESGKQAAIVGGTFGIGAAVVLTQFSLALSAGGAALVLEQVDSAKKLGSSAISTIKEAELAVEHRIFSALHQAQRIAMVPVEKITENTNSLLDILDGAVQKGLNIEVPPSVNLTIGQRVKNLASLIVQGVSNKAHDHVIDPINERARNYLEQLSQSFVLLDIVREKKTWVIEKSNELSTSVFDFKKTLEEEAQKYKVAPEEMLMKHIQSTSEQLSTQLQSLREKGQNVFGDGTKIDSTIDYLENLKKNFTDAEDVYKVRDEVLNEGRQRIAELSTWTTSLLIISAEWQFEPEDLLIEELYFDAPPPVRTRNLYRNRA”, the “soluble on expression in E. coli” value is “not soluble”.

“MGSDKIHHHHHHMFSARLKAIAQPVLADIENHPFVRGIQAGAVPAAALMVYVEQDTCFLDAFAKVYAGALSKCTTKDQMRFFEEQIRYTLNDEAGAHQILCDIAGQKLSDHQHAKQRPITYLYNEHLFNALRTGDLIDLIAAMLPCPWTYTEISQQIVDGAAPDNPFLPWIEFYQPQPGQIDGSMVKTLFGMVDELAIGLSEERQHEIEQRFLRSCELEYEFWEQAYYQKDWKYKN”: the “soluble on expression in E. coli” value is listed as “not soluble”.

For the sequence “MGSDKIHHHHHHVHAASRGAHRRLGAMRSSASQPLLKAALWDMDGTIVDTEPYWIEAEHALVAAHGGQWSHAQAMQLVGQSLVFSAGVLQKAGVKLEAREIIDSLTARVVSKVRKSVPWRPGARELLDQLHEAGIRCALVTMSEGPLAREVVAALPKPYFEFLVTGDTVTNGKPHPEAYLKAVELLQQGDSALTIADCVALEDSAPGVAAAMAAGVATVAIPHIVPLPDDPARATWHSLEGRTVADLQQLVARRSEFAVGDIGLEDAAFRSHGLD”, the “soluble on expression in E. coli” value is given as “not soluble”.

For the sequence “MSLTSKMMAFLPYFLELKGKRVNIQALINDRVSQAIEAAGAPAGTPALVRQSAKAQFGDYQANGIMGAAKQLGTNPREFAQKVLDVLNLEGIASKTEIAGPGFINIFLSEEFLAAQAEAALADARLGVAQEAPKTIVADYSAPNVAKEMHVGHLRSTIIGDAVVRTLEFLGHKVIRANHIGDWGTQFGMLIANLERVQKASGEVSMELSDLEAFYRESKKLYDEDEQFAETARNYVVKLQGGDPFCLEMWKKLVDVTMIQNQRNYDRLNVSLTRENVMGESMYNDMLPQIVSDLKAKGLAVEDDGAQVVFLEEFKNKDGEPMGVIIQKRDGGFLYTTTDIACAKYRYETLGADRVLYFIDSRQHQHLMQAWTIVRKAGYIPENVSLEHHAFGMMLGKDGRPFKTRAGGTVRLADLLDEAQERAKALIESKNPELSAEEKANIANTVAMAAVKYADLSKHRTTDYVFDWDNMLAFEGNTAPYMQYAYTRVASVFAKAGVDMNELTGHIQITEEKEKALIAKLLQFEEAVQSVAREGQPHIMCSYLFELAGIFSSFYEACPILVAEQESIKQSRLKLAALTAKTIKQGLALLGIDTLERMEGHHHHHH”, the “soluble on expression in E. coli” value was “soluble”.

For the sequence “MAAKKDYYAILGVPRNATQEEIKRAYKRLARQYHPDVNKSPEAEEKFKEINEAYAVLSDPEKRRIYDTYGTTEAPPPPPPGGYDFSGFDVEDFSEFFQELFGPGLFGGFGRRSRKGRDLRAELPLTLEEAFHGGERVVEVAGRRVSVRIPPGVREGSVIRVPGMGGQGNPPGDLLLVVRLLPHPVFRLEGQDLYATLDVPAPIAVVGGKVRAMTLEGPVEVAVPPRTQAGRKLRLKGKGFPGPAGRGDLYLEVRITIPERLTPEEEALWKKLAEAYYARA”, the “soluble on expression in E. coli” value was “soluble”.

As for “MGHHHHHHSHMKQVAVISGKGGTGKTTFSATIHALEGGVVADCDVDAPNLHILLKPQILKAEDFIASKKARIMPEKCSSCGLCYDLCRFGAVVAEDGYYVDEKKCEGCAFCFNVCPERAIEMENVKTGDLYVSKTEWGYFVHARLKPGEENTGRLVTEVKNRAKEIAEESNAEFLIVDSAPGVGCPVMASLTGVDAAIIVTEPTVSGLSDMLRILELCEHFRIRPFVVVNKFDLNVNIASEIESYCSENGVEFAGRVPFDKAIPEQIANLNFPFSGKAADKMVEIWKKLRE”, the “soluble on expression in E. coli” value is “not soluble”.

As to “MGSDKIHHHHHHMTQDFSEIFAKYEALVADVDNVFKRVQEAHPECVTCEKGCSDCCYAVFDLSLVEAMYLNHRFGQKFSFGPERSVIVERADETDRKLVKLKRQAHRDVQNGRDAEEILQDMGRVRVRCPLLGETDGCELYEYRPITCRLYGIPTAIGGKAHSCGKSAFLAGKQYPTVNIDRIHERLAQLSLEIRDAVHSRFSELHTVLVPVSMALLTTYDDAYLGAGATAKGNE”, the “soluble on expression in E. coli” value was “not soluble”.

With “MGSDKIHHHHHHMIARKLADLGVDVIEAGFPASSEGEFIATRKIFEEIGDQVEVIGLSRSNKNDIDKTISTGISSIHLFIATSELHMKYKLKMTKEEVLNKIYESVKYAKDHGMIVEFSPEDATRTEEDFLFTAIRTAIEAGADRINIPDTVGTMHPFKYYDMIKKIVNFVGERIIVSVHCHNDFGLATANSLAGVYAGARQAHVTVNGIGERAGNASLEEVVMGIKKLLNYETNVKTWKLYEVSRFVAEMTGVPVPYFKAIVGDNAFGHESGIHVHGVIENPFTYEPISPEEVGNFRRLALGKHSGIHGLRKLLEEQGIYLSDDKLKIVLAEIKKLAESGNKVTVEDAKNIALKLMNS”, the “soluble on expression in E. coli” value was “not soluble”.

With “MHNQTVRATVFKANAAAPQTKQIYEDDFSELYGEDIIAPPYNIIELKTIAEYSTILQQCIDAYRVNITGFGFDVEYTFDVNASDVDQAKKKRAEKDWARLEAFYKCLHFDESAEMILGYAIEDREKTGNGFMEVLRDGAGKPAGIEYLDVKYMRVCGAGEPVEVSFVYEENGKMKRIKRQKRFRKYVQMINGKKVFFKEYGDPRKMDIRTGEYVNTLAEKYQANEAIHLKIGSGVYGVPRWIGNIVNLYGARKAEELNFMYFKQGRHVPAAITVENGMLSEASYRELQEYMNDLESVENAHKFLLIEAEGIAKEKDLHGGEDITPVSVEIKSLAEILQNDALFLEYDEKSRNKLRSAFRLPPLYTGEAQEYNRATADTARKITEEQVFQPERKTLVNKLNTLLLPELNIHDVRLTLKGPDFRDPLEIAKVLGPFITAGAVSPNDLRDLAGRVLGKTLEEWPEDIYKRPAGQDAEKTNLAALMQELKESIEDIKTS”, the “soluble on expression in E. coli” value is recorded as “not soluble”.

“MAHHHHHHMTSFKDCLREVREAATEHLEGYRGGDTEKALQHIPREEALTTISLVAIRLLEQELPKRGAGNDASQHELHAQLRACRKALKSHSARSAAGDEGTSDKKRRRTEESTEAPTSSSYRGSATADRSGTSNSIELGQYASSDAFDQNEQKRMKFARLMGGAKVAAQGTGGAGGHSRHNTFAASNAELKRMNANLESQFESAMSHKGKKGLGA”: the “soluble on expression in E. coli” value was “soluble”.

Take “MQGDPDVLRLLNEQLTSELTAINQYFLHSKMQDNWGFTELAAHTRAESFDEMRHAEEITDRILLLDGLPNYQRIGSLRIGQTLREQFEADLAIEYDVLNRLKPGIVMCREKQDTTSAVLLEKIVADEEEHIDYLETQLELMDKLGEELYSAQCVSRPPT”: the “soluble on expression in E. coli” value is listed as “not soluble”.

In the case of “MPQVETTSVFRADLLKEMESSTGTAPASTGAENLPAGSALLVVKRGPNAGARFLLDQPTTTAGRHPESDIFLDDVTVSRRHAEFRINEGEFEVVDVGSLNGTYVNREPRNAQVMQTGDEIQIGKFRLVFLAGPAELEHHHHHH”, the “soluble on expression in E. coli” value was “soluble”.

As for “SLVYDSNNNLIADLGAEKRESISSDSIPMKLVNAVTSIEDHRFFKHRGVDIYRIIGAAWSNLLHKSTQGGSTLDQQLIKLAYFSTKESDQTLKRKAQEVWLSLQMEKKYTKEEILTFYVNKVYMGNGNYGMRTAAKSYYGKDLKDLSIAQLATLAGIPQAPTQYDPYAQP”, the “soluble on expression in E. coli” value is recorded as “not soluble”.

As for “MNIITLKVAIVEPLPMIRAGLEALLKKITGYKIQFIDAPADNGWVDVISFYCPDVVFMNPLVSGLTRNESDKACPQSRYVGLLTTPIDSNMLHNYDDTLSVHATVEELKQLLERLYQKTLEPEESGEEQQTLTNREKEIVVGVVKGMTNKEIAEELFLSTHTVITHRRNIAKKLQIHSPSGLTIYAIMNKLVNLDEIAH”, the “soluble on expression in E. coli” value is listed as “not soluble”.
